The chains are these.
B1: Azoarcus group I ribozyme (parent)
chain: GUGCCUUGCGCCGGGAAACCACGCAAGGGAUGGUGUCAAAUUCGGCGAAACCUAAGCGCCCGCCCGGGCGUAUGGCAACGCCGAGCCAAGCUUCGGCGCCUGCGCCGAUGAAGGUGUAGAGACUAGACGGCACCCACCUAAGGCAAACGCUAUGGUGAAGGCAUAGUCCAGGGAGUGGCGAAAGUCACACAAACCGG

Variants of B1 are the subject of the data set. The experiment in a line: reverse-splicing fitness (ratio to wild type); higher = more active; in vitro selection; Mg2+ level not given. In outline:
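An in vitro group I ribozyme library with randomized positions was T7-transcribed and gel-purified. In triplicate, 10 pmol RNA in EPPS pH 7.5 was reacted with 50 pmoles of a 30-nt RNA substrate for 1 h at 37 °C across several added MgCl2 levels (1–48 mM), then stopped with EDTA. Products were reverse transcribed from a substrate-complementary primer, PCR-amplified and sequenced (HiSeq 4000). Fitness is a variant's read proportion after selection over that before, normalised to wild type.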
A111G A120C A145C C150U C169A: the reverse-splicing fitness is 0.00825.

A111G A120C A145C C150U C169U: the reverse-splicing fitness worked out at 0.0786.

With A111C A145G C150G C169G U176A, the reverse-splicing fitness was determined as 0.00954.

Regarding A111C A145G C150G C169G U176C, the reverse-splicing fitness amounted to 0.0102.

Regarding A111C A145G C150G C169G U176G, the reverse-splicing fitness is 0.00555.

Take A111C A145U C150G: the reverse-splicing fitness was 0.219.

On to A111C A145U C150A, for which the reverse-splicing fitness is 0.286.

Regarding A111C A145U C150U, the reverse-splicing fitness worked out at 0.731.

In the case of A111C A145C C169A U176A, the reverse-splicing fitness amounted to 0.0151.

For the variant A111C A145C C169A U176G, the reverse-splicing fitness was 0.007.

As to A111C A145C C169A U176C, the reverse-splicing fitness amounted to 0.0113.

In the case of A111G A120C A145G C150A C169A U176C, the reverse-splicing fitness came to 0.0181.

Consider A111G A120C A145G C150A C169A U176G, for which the reverse-splicing fitness amounted to 0.00507.

Consider A111G A120C A145G C150A C169A U176A, for which the reverse-splicing fitness turned out to be 0.0185.

For A111C C150U U176A, the reverse-splicing fitness is 0.339.

As to A111C C150U U176G, the reverse-splicing fitness was 0.138.

Regarding A111C C150U U176C, the reverse-splicing fitness was 0.388.

Consider A111C A145C C169U, for which the reverse-splicing fitness came out at 0.118.

For the variant A111C A145C C169A, the reverse-splicing fitness was found to be 0.0285.

For the variant A111C A145C C169G, the reverse-splicing fitness is 0.0652.

For the variant A111C A145U C169A U176G, the reverse-splicing fitness turned out to be 0.00736.

As for A111C A145U C169A U176C, the reverse-splicing fitness worked out at 0.018.

Consider A111C A145U C169A U176A, for which the reverse-splicing fitness came out at 0.0141.

Consider A111C A145G C150A C169A U176G, for which the reverse-splicing fitness is 0.00852.

As for A111C A145G C150A C169A U176A, the reverse-splicing fitness stood at 0.0169.

Consider A111C A145G C150A C169A U176C, for which the reverse-splicing fitness was 0.0182.

As to A111G A120C A145C C150U U176A, the reverse-splicing fitness was 0.17.

For A111G A120C A145C C150U U176C, the reverse-splicing fitness came to 0.158.

In the case of A111G A120C A145C C150U U176G, the reverse-splicing fitness came out at 0.05.

Take A111G A120C A145C C150U C169A U176G: the reverse-splicing fitness was determined as 0.00419.

For the variant A111G A120C A145C C150U C169A U176A, the reverse-splicing fitness was 0.00824.

Consider A111G A120C A145C C150U C169A U176C, for which the reverse-splicing fitness came out at 0.00426.

Turning to A111C A145U C150U C169G, the reverse-splicing fitness turned out to be 0.0433.

Consider A111C A145U C150U C169U, for which the reverse-splicing fitness is 0.0751.

A111C A145U C150U C169A: the reverse-splicing fitness came to 0.0212.

For A111C A145U C150A C169G U176G, the reverse-splicing fitness turned out to be 0.00765.

Regarding A111C A145U C150A C169G U176C, the reverse-splicing fitness amounted to 0.0203.

Take A111C A145U C150A C169G U176A: the reverse-splicing fitness worked out at 0.0133.

In the case of A111G A120C A145G C150U, the reverse-splicing fitness amounted to 0.582.

Consider A111G A120C A145G C150A, for which the reverse-splicing fitness worked out at 0.166.

A111G A120C A145G C150G: the reverse-splicing fitness is 0.0893.

On to A111G A120C A145C C150U C169U U176G, for which the reverse-splicing fitness came to 0.00415.

As to A111G A120C A145C C150U C169U U176C, the reverse-splicing fitness is 0.0214.

As for A111G A120C A145C C150U C169U U176A, the reverse-splicing fitness turned out to be 0.0273.

As for A111C A145C C150G U176G, the reverse-splicing fitness was 0.0182.

For A111C A145C C150G U176C, the reverse-splicing fitness came to 0.13.

With A111C A145C C150G U176A, the reverse-splicing fitness turned out to be 0.0871.

Take A111G A120C A145G C150G C169U: the reverse-splicing fitness stood at 0.0255.

For the variant A111G A120C A145G C150G C169G, the reverse-splicing fitness amounted to 0.0082.

Take A111G A120C A145G C150G C169A: the reverse-splicing fitness was 0.00936.

On to A111G A120C A145C C150A C169U U176C, for which the reverse-splicing fitness came out at 0.012.

For A111G A120C A145C C150A C169U U176G, the reverse-splicing fitness amounted to 0.00433.

Take A111G A120C A145C C150A C169U U176A: the reverse-splicing fitness was 0.016.

As to A111C A145G C150G U176C, the reverse-splicing fitness is 0.13.

As to A111C A145G C150G U176G, the reverse-splicing fitness was determined as 0.0194.

In the case of A111C A145G C150G U176A, the reverse-splicing fitness worked out at 0.0686.

A111C A145G C150U U176C: the reverse-splicing fitness was 0.404.

A111C A145G C150U U176G: the reverse-splicing fitness is 0.135.

Take A111C A145G C150U U176A: the reverse-splicing fitness came to 0.313.

Turning to A111C A145C C169G U176A, the reverse-splicing fitness is 0.0324.

Consider A111C A145C C169G U176G, for which the reverse-splicing fitness was 0.00691.

Consider A111C A145C C169G U176C, for which the reverse-splicing fitness is 0.0318.

For the variant A111G A120C A145G C150A U176G, the reverse-splicing fitness was determined as 0.0203.

Consider A111G A120C A145G C150A U176C, for which the reverse-splicing fitness came to 0.0998.

As to A111G A120C A145G C150A U176A, the reverse-splicing fitness turned out to be 0.0804.

As for A111C A145G C150G, the reverse-splicing fitness was determined as 0.212.

A111C A145G C150A: the reverse-splicing fitness came to 0.31.

Take A111C A145G C150U: the reverse-splicing fitness amounted to 0.679.

In the case of A111C A145G C150G C169A, the reverse-splicing fitness amounted to 0.00939.

A111C A145G C150G C169U: the reverse-splicing fitness was 0.0157.

As for A111C A145G C150G C169G, the reverse-splicing fitness was found to be 0.0116.

For the variant A111C A145U C150G C169U U176C, the reverse-splicing fitness is 0.0134.

Turning to A111C A145U C150G C169U U176A, the reverse-splicing fitness came to 0.0095.

With A111C A145U C150G C169U U176G, the reverse-splicing fitness came out at 0.00683.

In the case of A111C A145U, the reverse-splicing fitness amounted to 0.839.

For the variant A111C A145G, the reverse-splicing fitness was found to be 0.83.

Regarding A111G A120C A145G C150G C169A U176A, the reverse-splicing fitness is 0.00955.

On to A111G A120C A145G C150G C169A U176G, for which the reverse-splicing fitness worked out at 0.00623.

Turning to A111G A120C A145G C150G C169A U176C, the reverse-splicing fitness came to 0.0102.

On to A111C A145G C150U C169G U176C, for which the reverse-splicing fitness is 0.021.

Consider A111C A145G C150U C169G U176G, for which the reverse-splicing fitness came to 0.00741.

Consider A111C A145G C150U C169G U176A, for which the reverse-splicing fitness came to 0.0138.

In the case of A111C A145G C150A C169G U176C, the reverse-splicing fitness amounted to 0.0293.

(Values after the RNAGym collection of RNA variant scans (doi:10.1093/molbev/msab373).)
